The target in the test is GST-tagged proline-rich domain (PRD) of Dyn2 (human). The test can be described thus: pull-down.
Chain of GST-tagged proline-rich domain (PRD) of Dyn2 (human) (P50570 whole entry, the tested form may be a part): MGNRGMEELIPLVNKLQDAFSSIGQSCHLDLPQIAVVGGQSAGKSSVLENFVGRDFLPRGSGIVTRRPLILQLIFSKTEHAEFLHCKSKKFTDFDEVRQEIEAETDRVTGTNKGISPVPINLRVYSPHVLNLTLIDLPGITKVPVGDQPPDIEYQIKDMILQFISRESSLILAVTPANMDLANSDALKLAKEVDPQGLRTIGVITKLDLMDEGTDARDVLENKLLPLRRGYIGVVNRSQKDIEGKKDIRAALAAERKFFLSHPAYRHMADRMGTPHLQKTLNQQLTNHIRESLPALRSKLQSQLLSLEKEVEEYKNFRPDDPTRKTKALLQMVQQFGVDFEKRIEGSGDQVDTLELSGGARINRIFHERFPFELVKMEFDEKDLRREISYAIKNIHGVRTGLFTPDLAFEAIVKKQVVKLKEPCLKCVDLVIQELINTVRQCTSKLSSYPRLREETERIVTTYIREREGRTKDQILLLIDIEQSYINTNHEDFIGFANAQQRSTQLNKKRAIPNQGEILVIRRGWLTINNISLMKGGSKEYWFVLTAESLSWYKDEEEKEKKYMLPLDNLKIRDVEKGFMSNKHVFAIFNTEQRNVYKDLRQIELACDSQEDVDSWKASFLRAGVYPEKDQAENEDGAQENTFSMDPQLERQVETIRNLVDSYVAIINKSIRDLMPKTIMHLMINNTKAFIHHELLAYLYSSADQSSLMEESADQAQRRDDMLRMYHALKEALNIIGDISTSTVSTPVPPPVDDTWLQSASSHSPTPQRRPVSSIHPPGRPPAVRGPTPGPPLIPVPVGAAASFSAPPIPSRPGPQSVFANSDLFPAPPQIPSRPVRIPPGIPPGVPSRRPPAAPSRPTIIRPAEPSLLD

Substance “His-tagged human Bin1 isoform 8, CNM-associated mutant K436X (domain or fragment)” displayed a Kd of 267 nM. The figure for “His-tagged human Bin1 isoform 8, wild type (natural protein)” is 180 nM.

One may read the Kd as the constant that tells how readily two partners part at equilibrium. Low values mean higher affinity, high ones lower affinity.
